The target of data set [1] is Type IV-A3 effector complex (Cas5-Cas8-Cas7-Cas6 crRNP), DinG-free (Klebsiella pneumoniae) (UniProt A0A8G1XN67+A0A7Z7WW72+A0A333ESG5). The data set can be described thus: EMSA. Particulars: crRNA; EMSA: 10 mM HEPES pH 7.5, 150 mM NaCl, 1 nM DNA, on ice then 20 min RT, 6% native PAGE in TBE at 4 C; cryo-EM: 10 uM complex + 15 uM DNA in the same buffer …; scale: fold tighter than type IV-A1 complex on its target.

Data set [2] addresses type IV-A1 Cas7 (Csf2) from Pseudomonas oleovorans (Pseudomonas oleovorans). The data set can be described thus: cryo-EM structure; type IV-A1 effector complex (10 µM) reconstituted with bubbled target dsDNA (15 µM) in 10 mM HEPES-Na pH 7.5, 150 mM NaCl, then SEC; particle class without DinG.
Data set [3] has as its target type IV-A3 Cas7 (Csf2) from Klebsiella pneumoniae (Klebsiella pneumoniae). The data set can be described thus: cryo-EM structure; type IV-A3 effector complex (10 µM) reconstituted with bubbled target dsDNA (15 µM) in 10 mM HEPES-Na pH 7.5, 150 mM NaCl, then SEC; without DinG.
In data set [4] the target is T1, Type IV-A1 effector complex (Cas5-Cas8-Cas7-Cas6 crRNP), DinG-free (Pseudomonas oleovorans, UniProt A0A379PL53;A0A379PIR4;A0A379PIR9;A0A379PNK2 1-222;1-240;1-347;1-236).
T1 sequence 1: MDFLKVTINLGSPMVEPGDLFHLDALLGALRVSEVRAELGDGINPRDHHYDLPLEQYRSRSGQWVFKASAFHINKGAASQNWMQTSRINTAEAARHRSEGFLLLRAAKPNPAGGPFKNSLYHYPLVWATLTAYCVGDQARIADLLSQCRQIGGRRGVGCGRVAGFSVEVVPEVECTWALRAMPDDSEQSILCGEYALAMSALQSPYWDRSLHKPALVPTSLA
T1 sequence 2: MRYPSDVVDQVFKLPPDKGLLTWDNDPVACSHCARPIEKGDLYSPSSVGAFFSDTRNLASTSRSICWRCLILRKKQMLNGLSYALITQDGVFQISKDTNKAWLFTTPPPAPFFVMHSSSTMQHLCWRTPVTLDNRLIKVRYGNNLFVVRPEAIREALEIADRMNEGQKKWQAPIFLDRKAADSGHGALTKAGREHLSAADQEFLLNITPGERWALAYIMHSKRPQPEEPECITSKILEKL
T1 sequence 3: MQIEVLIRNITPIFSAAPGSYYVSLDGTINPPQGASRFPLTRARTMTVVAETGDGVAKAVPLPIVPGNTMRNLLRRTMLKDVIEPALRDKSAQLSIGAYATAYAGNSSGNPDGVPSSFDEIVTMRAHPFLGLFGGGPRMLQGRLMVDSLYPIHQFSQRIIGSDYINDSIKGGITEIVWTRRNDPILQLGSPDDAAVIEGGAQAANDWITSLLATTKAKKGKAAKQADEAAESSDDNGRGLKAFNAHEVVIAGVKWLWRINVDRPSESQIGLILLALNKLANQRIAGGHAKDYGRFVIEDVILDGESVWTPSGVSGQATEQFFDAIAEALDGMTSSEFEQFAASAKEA
T1 sequence 4: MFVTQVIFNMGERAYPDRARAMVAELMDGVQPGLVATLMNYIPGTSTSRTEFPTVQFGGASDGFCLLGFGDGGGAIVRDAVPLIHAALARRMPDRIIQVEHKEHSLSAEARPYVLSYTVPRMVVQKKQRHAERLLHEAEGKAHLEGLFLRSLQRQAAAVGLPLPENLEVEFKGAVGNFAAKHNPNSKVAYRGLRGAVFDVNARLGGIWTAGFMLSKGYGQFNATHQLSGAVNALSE
Description: cryo-EM; crRNA; no DinG; 3.0 A; PDB code not assigned in the material (8RC2/8RC3/8RFJ); EMSA: 10 mM HEPES pH 7.5, 150 mM NaCl, 1 nM DNA, on ice then 20 min RT, 6% native PAGE in TBE at 4 C; cryo-EM: 10 uM complex + 15 uM DNA in the same buffer, 10. Particulars: protein: recombinant; tags: His6 C-terminal on Cas8; copies: 1;1;5;1; bubble: non-complementary protospacer, paired 15 nt and 14+ nt ends.

Take IV-A3 EMSA target, no mismatch: the binding signal in data set [1] came out at 10.
As for “type IV-A1 Cas7 (Csf2) from Pseudomonas oleovorans (natural protein)”, the stoichiometry N in data set [2] was determined as 5.
For “type IV-A3 Cas7 (Csf2) from Klebsiella pneumoniae (natural protein)”, the stoichiometry N in data set [3] was 6.

B1: Type IV-A1 bubbled target DNA (TS/NTS) for cryo-EM (dsDNA)
DNA 1: CGGTCGGGTCATACGTCGCGTCTCGAATCTGATGCGTAACTTGGATGCTTCGTGCGTGATG
DNA 2: CATCACGCACGAAGACCAAGTCAATGCTTAGTCTAATACCTGCGCTCGTATGACCCGACCG
Turning to B1, the binding result in data set [4] is reported as “binds”.

The term stoichiometry N denotes a count of units in the complex or per binding partner.

For the origin of these results see publication PMC11519345, “Structural variation of types IV-A1- and IV-A3-mediated CRISPR interference”.
